From US20090041784A1 (Amgen, published 2009)
Read-outs that look alike come from different tables or passages of the source.

Assays:
human glucagon receptor [1] = target: T1, human glucagon receptor (human, UniProt P47871 26-477); assay: cell-based or functional assay
human glucagon receptor [2] = target: T1, human glucagon receptor; assay: competition with 1 nM Alexa-labeled A-3 for human GCGR on CHO cells, FMAT
Text: Several of the antibodies of the present invention were binned using a competition binding assay to determine what antibodies cross-competed for binding with a labeled reference anti-GCGR antibody.

[3] = target: T2, cynomolgus glucagon receptor (cynomolgus (Macaca fascicularis), UniProt P47871 26-477 (human entry)); assay: cell-based or functional assay
T2 chain: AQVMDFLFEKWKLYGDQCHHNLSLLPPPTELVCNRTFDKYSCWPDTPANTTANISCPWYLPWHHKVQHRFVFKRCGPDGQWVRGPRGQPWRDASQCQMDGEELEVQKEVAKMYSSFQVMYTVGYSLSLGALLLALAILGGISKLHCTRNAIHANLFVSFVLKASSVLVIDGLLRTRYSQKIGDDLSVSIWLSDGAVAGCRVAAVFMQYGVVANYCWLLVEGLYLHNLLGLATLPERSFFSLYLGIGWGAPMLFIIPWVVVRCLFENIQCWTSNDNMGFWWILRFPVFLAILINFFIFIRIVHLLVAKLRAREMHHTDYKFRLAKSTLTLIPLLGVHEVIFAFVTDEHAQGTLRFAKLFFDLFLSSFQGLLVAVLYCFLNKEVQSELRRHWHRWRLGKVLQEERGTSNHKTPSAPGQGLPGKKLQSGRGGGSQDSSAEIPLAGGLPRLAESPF

mouse glucagon receptor = mouse glucagon receptor (mouse (Mus musculus), UniProt Q61606 27-485); assay: cell-based or functional assay
human glucagon receptor [4] = target: T1, human glucagon receptor; assay: cell-based or functional assay; remark: listed apart in the source
rat glucagon receptor = rat glucagon receptor (rat (Rattus norvegicus), UniProt P30082 27-485); assay: cell-based or functional assay

B1: antibody A-6 (antibody, V domains shown)
VH: QVQLVESGGGVVQPGRSLRLSCAASGFTFSSYGMHWVRQAPGKGLEWVAEIWNDGSNKYYADSVKGRFTISRDNPKNTLYLQMNSLRAEDTAVYYCAREPQYYDILTGYDNYYGMDVWGQGTTVTVSS
VL: EIVLTQSPGTLSLFPGERATLSCRASQSVSSNYLAWYQQKSGQAPRLLIYGASSRATGIPDRFSGSGSGTDFTLTISRLEPEDFAVYYCQQYGNSPFTFGPGTNVDIK
Human glucagon receptor [1]
  IC50 of inhibition of glucagon-induced cAMP production (HTRF, CHO K1 cells expressing the receptor): 32.2 nM

B2: antibody A-16 (antibody, V domains shown)
VH: QVQLVQSGAEVKKPGASVKVSCKASGYTFTGYYLHWVRQAPGQGLEWMGWIIPDSGGTKYAQKFQGRVTMTRDTSISTAYLELSRLRSDDTAVYYCAREGFHYDILTGSYFYYYGMDVWGQGTTVTVSS
VL: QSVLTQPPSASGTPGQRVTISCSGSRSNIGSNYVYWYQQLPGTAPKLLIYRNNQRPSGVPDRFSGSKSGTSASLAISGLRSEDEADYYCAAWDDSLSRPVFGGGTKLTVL
notes: Human antibody from XenoMouse hybridoma (IgG2 or IgG4 strains), purified from conditioned medium; also called L16H16
Human glucagon receptor [2]
  binding result: binds

B3: antibody A-14 (antibody, V domains shown)
VH: QVQLVESGGGVVQPGRSLRLSCAASGFTFSNYGMHWVRQAPGKGLEWVAVIWYDGSNKYYADSVKGRFTISRDNSKNTLYLQMNSLRAEDTAVYYCARAYYDILTDYPQYDYYYGMDVWGQGTTVTVSS
VL: NFMLTQPHSVSESPGKTVTISCTRSSGSIVSNFVQWYQQRPGSSPTTVIYEDNQRPSGVPDRFSGSIDSSSNSASLTISGLKTEDEADYYCQSYDTSNQVFGGGTKLTVL
Human glucagon receptor [1]
  IC50 of inhibition of glucagon-induced cAMP production (HTRF, CHO K1 cells expressing the receptor): 458 nM

B4: antibody A-1 (antibody, V domains shown)
VH: QVQLVESGGGVVQPGRSLRLSCAASGITFSSYGMHWVRQAPGKGLEWVASIWYDGSNKYYVDSVKGRFTIFRDNSKKTLYLQMNRLRAEDTAVYYCARLGGGFDYWGQGTLVTVSS
VL: DIVLTQTPLSLPVTPGEPASISCRSSQSLLDRDDGDTYLDWYLQKPGQSPQLLIYTLSYRASGVPDRFSGSGSGTDFSLKISRVEAEDVGVYYCMQRIEFPFTFGPGTKVDIK
Human glucagon receptor [1]
  IC50 of inhibition of glucagon-induced cAMP production (HTRF, CHO K1 cells expressing the receptor): 15 nM

B5: antibody A-2 (antibody, V domains shown)
VH: QVQLVESGGGVVQPGRSLRLSCAASGITFSSYGMHWVRQGPGKGLEWVAFIWYDGSEKYYVDSVKGRFTISRDNSKNTLYLQMNSLRAEDTAVYYCARMGGGFDYWGQGTLVTVSS
VL: DIVMTQTPLSLPVTPGEPASISCRSSQSLLDSADGDTYLDWYLQKPGQSPQLLIYTLSYRASGVPDRFSGSGSDTDFSLKISRVEAEDVGVYYCMQRIEFPFTFGPGTKVDIK
Human glucagon receptor [1]
  IC50 of inhibition of glucagon-induced cAMP production (HTRF, CHO K1 cells expressing the receptor): 10.1 nM

B6: antibody A-8 (antibody, V domains shown)
VH: QVQLAESGGGVVQPGRSLRLSCTASGITFSSYGMHWVRQAPGKGLEWVAGIWYDGRNKYYVDSVKGRFTISRDNSKKTLYLQMNSLRAEDTAVYYCARLAVAFDYWGQGTLVTVSS
VL: DIVMTQTPLSLPVTPGEPASISCRSTQSLLDSDDGDTYLDWYLQKPGQSPQLLIYTLSYRASGVPDRFSGSGSGTDFTLKISRVEAEDVGVYYCMQRIEFPFTFGPGTKVDIK
Human glucagon receptor [1]
  IC50 of inhibition of glucagon-induced cAMP production (HTRF, CHO K1 cells expressing the receptor): 10.4 nM

B7: antibody A-22 (antibody, V domains shown)
VH: QVQLVESGGGVVQPGRSLRLSCAASGITFSSYGMHWVRQAPGKGLEWVASIWYDGSNKYYVDSVKGRFTIFRDNSKKTLYLQMNRLRAEDTAVYYCARLGGGFDYWGQGTLVTVSS
VL: DIVLTQTPLSLPVTPGEPASISCRSSQSLLDRDDGDTYLDWYLQKPGQSPQLLIYTLSYRASGVPDRFSGSGSGTDFSLKISRVEAEDVGVYYCMQRIEFPFTFGPGTKVDIK
Human glucagon receptor [1]
  IC50 of inhibition of glucagon-induced cAMP production (HTRF, CHO K1 cells expressing the receptor): 7.2 nM

B8: antibody A-23 (antibody, V domains shown)
VH: EVRLVESGGGLVQPGGSLRLSCTASGFPFNRYAMNWVRQAPGKGLEWVSYIGSSSSAIYYADSVKGRFTISRDNAKNSLYLQMNSLRDEDTAVYYCARYSSGWSPLFDYWGQGTLVTVSS
VL: DIQMTQSPSSVSASVGDRVTITCRASQGISSWLAWYQQKPGKAPKLLIYTASTLQSGVPSRFSGSGSGTDFTLTISSLQPEDFATYYCQQSNSFPLTFGGGTKVEIK
notes: Human antibody from XenoMouse hybridoma (IgG2 or IgG4 strains), purified from conditioned medium; also called L23H23
Human glucagon receptor [2]
  binding result: binds

B9: antibody A-11 (antibody, V domains shown)
VH: QVQLVESGGGVVQPGRSLRLSCAASGSTFRSYDMHWVRQAPGKGLEWVAFISDDGSNKYYGDSVKGRLTISRDNSKNTLYLQMNSLRAEDTAVYYCARDQYDILTGYSSDAFDIWGQGTMVTVSS
VL: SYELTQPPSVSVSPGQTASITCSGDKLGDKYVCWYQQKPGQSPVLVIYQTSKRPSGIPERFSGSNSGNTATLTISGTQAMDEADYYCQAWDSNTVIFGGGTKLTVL
Human glucagon receptor [1]
  IC50 of inhibition of glucagon-induced cAMP production (HTRF, CHO K1 cells expressing the receptor): 16.7 nM

B10: antibody A-13 (antibody, V domains shown)
VH: QVQLVESGGGVVQPGRSLRLSCAASGSTFRSYDMHWVRQAPGKGLEWVAVISYDGSNKYYGDSVKGRLTISRDNSKNTLYLQMNSLRAEDTAVYYCARDQYDILTGYSSDAFDIWGQGTMVTVSS
VL: not shown
Human glucagon receptor [1]
  IC50 of inhibition of glucagon-induced cAMP production (HTRF, CHO K1 cells expressing the receptor): 72.6 nM

B11: antibody A-12 (antibody, V domains shown)
VH: QVQLVESGGGVVQPGRSLRLSCAASGSTFRSYDMHWVRQAPGKGLEWVAFISDDGSNKYYGDSVKGRLTISRDNSKNTLYLQMNSLRAEDTAVYYCARDQYDILTGYSSDAFDIWGQGTMVTVSS
VL: not shown
Human glucagon receptor [1]
  IC50 of inhibition of glucagon-induced cAMP production (HTRF, CHO K1 cells expressing the receptor): 21.3 nM

B12: antibody A-17 (antibody, V domains shown)
VH: QVQLVQSGAEVKKPGASVKVSCKASGYTFTSYGISWARQAPGQGLEWMGWIGVYNGHTKYAQKFQGRVTMTTDTSTSTAYMELRSLRSDDTAIFYCARRVAVAGYFDYWGQGTLVTVSS
VL: QSVLTQPPSVSGAPGQRVTISCTGSSSNIGAGYAVHWYQQLPGTAPKLLIYDNNNRPSGVPDRFSGSKSGTSASLAITGLQAEDEADYYCQSYDSSLSAIFGGGTKLTVL
notes: Human antibody from XenoMouse hybridoma (IgG2 or IgG4 strains), purified from conditioned medium; also called L17H17
Human glucagon receptor [2]
  binding result: binds

B13: antibody A-15 (antibody, V domains shown)
VH: QVQLVESGGGVVQPGKSLRLSCAVSGFIFSSYGMHWVRQAPGKGLEWVALISFDGSNKYYADSVKGRFTISRDNSKNTLYLQMNSLRAEDTAVYYCARDGYYDILTGYEDDAFDIWGQGTMVTVSS
VL: not shown
Human glucagon receptor [1]
  IC50 of inhibition of glucagon-induced cAMP production (HTRF, CHO K1 cells expressing the receptor): 11.3 nM

B14: antibody A-9 (antibody, V domains shown)
VH: QVQLVESGGGVVQPGRSLRLSCAASGFTFSSYGMHWVRQAPGKGLEWVAVMWYDGSNKDYVDSVKGRFTISRDNSKNTLYLQMNRLRAEDTAVYYCAREKDHYDILTGYNYYYGLDVWGQGTTVTVSS
VL: DIQMTQSPSSLSASVGDRVTITCRASQGIRNDLGWYQQKPGKAPKRLIYAASSLESGVPSRFSGSGSGTEFTLTISSVQPEDFVTYYCLQHNSNPLTFGGGTKVEIK
[3]
  IC50 of inhibition of glucagon-induced cAMP production (HTRF, CHO K1 cells expressing the receptor): 26.6 nM
Mouse glucagon receptor
  IC50 of inhibition of glucagon-induced cAMP production (HTRF, CHO K1 cells expressing the receptor): 4.1 nM
Human glucagon receptor [4]
  IC50 of inhibition of glucagon-induced cAMP production (HTRF, CHO K1 cells expressing the receptor): 7.4 nM
Rat glucagon receptor
  IC50 of inhibition of glucagon-induced cAMP production (HTRF, CHO K1 cells expressing the receptor): 9.9 nM

B15: antibody A-5 (antibody, V domains shown)
VH: QVQLVESGGGVVQPGRSLRLSCAASGFTFSTYGMHWVRQAPGKGLEWVAVISDDGSHKYSADSVKGRFTISRDNSKNTLYLQMNSLRTEDSAVYYCAREETYYDILTGYHHYYGMDVWGQGTTVTVSS
VL: DIQMTQSPSSLSAFVGDRVTITCRASQGIRNDLGWYQQKPGKAPKRLLYAASSLQSGVPSRFSGSGSGSEFTLTISSLQPEDFATYYCLQHNSDPLTFGQGTRLEIK
Human glucagon receptor [1]
  IC50 of inhibition of glucagon-induced cAMP production (HTRF, CHO K1 cells expressing the receptor): 13.3 nM

B16: antibody A-20 (antibody, V domains shown)
VH: EVQLVESGGDLVQPGGSLRLSCAASGFTFSGYTLNWVRQAPGKGLEWVSNINSRSSLIYYTDSVKGRFTISRDNAKNSLYLQMNSLRDEDTAVYFCARDQYNWNYYYGMDVWGQGTTVTVSS
VL: DIQMTQSPSSLSASVGDRVTITCRASQGIRNDLGWYQQKPGKAPKRLIYAASSLQSGVPSRFSGSGSGTEFTLTISNLQPEDFATYYCLQHNSYPRSFGQGTKLEIK
notes: Human antibody from XenoMouse hybridoma; also called L20H20
Human glucagon receptor [2]
  binding result: binds

B17: antibody A-7 (antibody, V domains shown)
VH: QVQLVESGGGVVQPGRSLRLSCAASGFTFSSYDMHWVRQAPGKGLEWVAVISHDGSDKYYADSVKGRFTISRDNSKNTLYLQMSSLRAEDTAVYYCAREKPYYDILTGYFYYYGMDVWGQGTTVTVSS
VL: DIQMTQSPSSLSASVGDRVTVTCRASQDIRNDFGWYQQKPGKAPKRLIYAASSLQSGVPSRFSGSGSGTEFTLTISSLQPEDFATYYCLQQNSYPLTFGGGTKVEIK
Human glucagon receptor [1]
  IC50 of inhibition of glucagon-induced cAMP production (HTRF, CHO K1 cells expressing the receptor): 8.8 nM
